The source of these data is article PMC5207133.

Assay [1] deals with XRCC4-DNA ligase IV (X4L4) complex (human) (UniProt Q13426).
Assay [2] has as its target Ku70/80 heterodimer (human (endogenous in HeLa)) (UniProt P12956).

aprataxin and polynucleotide kinase/phosphatase-like factor (APLF), GST tag removed, sequence (Q8IW19 whole entry): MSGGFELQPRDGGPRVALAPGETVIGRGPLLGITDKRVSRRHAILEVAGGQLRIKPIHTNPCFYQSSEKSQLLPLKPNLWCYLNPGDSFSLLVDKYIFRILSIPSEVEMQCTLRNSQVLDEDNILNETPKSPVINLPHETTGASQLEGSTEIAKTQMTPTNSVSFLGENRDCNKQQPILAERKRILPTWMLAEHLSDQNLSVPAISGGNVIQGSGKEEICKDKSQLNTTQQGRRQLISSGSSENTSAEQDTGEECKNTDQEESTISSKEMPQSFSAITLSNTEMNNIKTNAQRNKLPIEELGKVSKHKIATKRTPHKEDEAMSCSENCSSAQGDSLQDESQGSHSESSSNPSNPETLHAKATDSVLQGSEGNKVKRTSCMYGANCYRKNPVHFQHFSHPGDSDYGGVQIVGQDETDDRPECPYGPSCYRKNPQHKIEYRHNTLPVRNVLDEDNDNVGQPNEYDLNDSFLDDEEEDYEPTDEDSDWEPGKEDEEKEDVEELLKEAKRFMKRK
Ku70/80 heterodimer (human (endogenous in HeLa)), sequence (P12956 whole entry, chain 1 of 2): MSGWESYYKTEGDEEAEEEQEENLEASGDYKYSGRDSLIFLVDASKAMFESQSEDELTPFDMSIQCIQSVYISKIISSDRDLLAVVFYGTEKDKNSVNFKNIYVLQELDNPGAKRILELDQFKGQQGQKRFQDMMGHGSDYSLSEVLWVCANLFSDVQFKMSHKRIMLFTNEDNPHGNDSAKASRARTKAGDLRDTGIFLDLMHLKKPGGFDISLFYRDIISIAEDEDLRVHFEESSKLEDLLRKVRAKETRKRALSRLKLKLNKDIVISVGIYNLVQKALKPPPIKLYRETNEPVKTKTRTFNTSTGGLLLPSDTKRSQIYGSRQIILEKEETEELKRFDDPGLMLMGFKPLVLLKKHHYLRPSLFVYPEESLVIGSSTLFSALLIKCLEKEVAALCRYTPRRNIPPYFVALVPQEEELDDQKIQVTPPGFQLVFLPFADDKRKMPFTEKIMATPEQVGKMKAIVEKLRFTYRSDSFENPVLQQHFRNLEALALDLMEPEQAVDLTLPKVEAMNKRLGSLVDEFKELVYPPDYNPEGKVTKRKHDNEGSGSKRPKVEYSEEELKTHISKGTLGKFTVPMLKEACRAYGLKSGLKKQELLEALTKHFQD
Ku70/80 heterodimer (human (endogenous in HeLa)), sequence (P13010 whole entry, chain 2 of 2, further chain): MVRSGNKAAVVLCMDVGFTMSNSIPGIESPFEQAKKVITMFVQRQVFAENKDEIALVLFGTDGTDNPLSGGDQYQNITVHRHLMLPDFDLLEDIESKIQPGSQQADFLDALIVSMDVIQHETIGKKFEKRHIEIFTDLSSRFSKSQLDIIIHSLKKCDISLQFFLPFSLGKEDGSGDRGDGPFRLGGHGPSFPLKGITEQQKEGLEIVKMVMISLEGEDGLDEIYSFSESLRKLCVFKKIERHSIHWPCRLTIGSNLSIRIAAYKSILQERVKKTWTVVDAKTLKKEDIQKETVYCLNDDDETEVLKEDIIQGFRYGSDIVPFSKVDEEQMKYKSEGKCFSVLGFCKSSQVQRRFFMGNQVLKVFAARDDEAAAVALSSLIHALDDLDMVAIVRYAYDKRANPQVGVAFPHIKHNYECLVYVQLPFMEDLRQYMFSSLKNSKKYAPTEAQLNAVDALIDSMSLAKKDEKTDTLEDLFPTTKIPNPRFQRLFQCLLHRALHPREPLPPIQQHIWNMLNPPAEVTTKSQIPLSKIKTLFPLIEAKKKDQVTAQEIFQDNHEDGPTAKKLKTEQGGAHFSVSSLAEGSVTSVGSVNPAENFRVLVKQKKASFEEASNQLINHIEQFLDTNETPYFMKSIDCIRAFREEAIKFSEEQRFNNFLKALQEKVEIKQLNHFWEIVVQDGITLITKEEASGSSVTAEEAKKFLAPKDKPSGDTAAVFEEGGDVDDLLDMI
XRCC4-DNA ligase IV (X4L4) complex (human), sequence (Q13426 whole entry, chain 1 of 2): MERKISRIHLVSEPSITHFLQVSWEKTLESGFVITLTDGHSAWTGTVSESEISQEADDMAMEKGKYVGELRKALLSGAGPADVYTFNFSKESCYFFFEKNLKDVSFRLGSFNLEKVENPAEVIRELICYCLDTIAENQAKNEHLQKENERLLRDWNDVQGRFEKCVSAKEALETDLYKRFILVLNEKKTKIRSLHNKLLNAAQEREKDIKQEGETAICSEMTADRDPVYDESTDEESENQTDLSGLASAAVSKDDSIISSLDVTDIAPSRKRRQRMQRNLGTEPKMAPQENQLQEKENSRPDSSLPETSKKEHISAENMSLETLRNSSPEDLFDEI
XRCC4-DNA ligase IV (X4L4) complex (human), sequence (P49917 whole entry, chain 2 of 2, further chain): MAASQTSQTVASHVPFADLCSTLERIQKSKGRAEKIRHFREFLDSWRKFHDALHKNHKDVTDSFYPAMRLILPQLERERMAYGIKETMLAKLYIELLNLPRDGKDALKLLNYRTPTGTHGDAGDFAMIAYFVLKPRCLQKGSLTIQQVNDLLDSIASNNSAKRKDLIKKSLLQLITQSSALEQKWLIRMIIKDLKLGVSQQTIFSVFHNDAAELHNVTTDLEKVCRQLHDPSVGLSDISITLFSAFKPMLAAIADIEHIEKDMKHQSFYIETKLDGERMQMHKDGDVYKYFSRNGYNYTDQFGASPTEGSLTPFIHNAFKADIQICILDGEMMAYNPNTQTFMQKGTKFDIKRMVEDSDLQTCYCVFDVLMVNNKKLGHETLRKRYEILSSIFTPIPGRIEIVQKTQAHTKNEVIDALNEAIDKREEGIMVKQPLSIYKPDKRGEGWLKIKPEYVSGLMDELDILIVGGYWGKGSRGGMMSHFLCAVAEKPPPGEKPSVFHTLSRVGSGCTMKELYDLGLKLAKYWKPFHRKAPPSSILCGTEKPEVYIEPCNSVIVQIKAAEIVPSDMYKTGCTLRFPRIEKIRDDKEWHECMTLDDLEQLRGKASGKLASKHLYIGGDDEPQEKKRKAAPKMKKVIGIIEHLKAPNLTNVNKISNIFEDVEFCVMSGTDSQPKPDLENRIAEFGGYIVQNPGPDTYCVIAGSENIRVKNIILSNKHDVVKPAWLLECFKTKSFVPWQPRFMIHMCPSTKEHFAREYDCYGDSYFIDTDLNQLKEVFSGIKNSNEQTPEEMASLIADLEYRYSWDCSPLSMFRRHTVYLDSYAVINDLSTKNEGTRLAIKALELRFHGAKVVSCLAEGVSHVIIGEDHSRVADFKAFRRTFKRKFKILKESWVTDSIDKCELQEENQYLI

As usually defined, the stoichiometry N is a count of units in the complex or per binding partner. As to “aprataxin and polynucleotide kinase/phosphatase-like factor (APLF), GST tag removed (from UniProt Q8IW19 1-511) (natural protein)”, the stoichiometry N in assay [1] and in assay [2] was 1 throughout.
